According to patent US20140271457A1 (AbbVie / Abbott, published 2014):

B1: DVD2818 (bispecific antibody, IgG1)
VH: EVQLVESGGGLVQPGGSLRLSCAASGFSLTNNNVNWVRQAPGKGLEWVGGVWAGGATDYNSALKSRFTISRDNSKNTAYLQMNSLRAEDTAVYYCARDGGYSSSTLYAMDAWGQGTLVTVSSGGGGSGGGGSEVQLVQSGAEVKKPGASVKVSCKASGYTFANYGIIWVRQAPGQGLEWMGWINTYTGKPTYAQKFQGRVTMTTDTSTSTAYMELSSLRSEDTAVYYCARKLFTTMDVTDNAMDYWGQGTTVTVSS
VL: DIQMTQSPSSLSASVGDRVTITCRASEDIYNALAWYQQKPGKAPKLLIYNTDTLHTGVPSRFSGSGSGTDYTLTISSLQPEDFATYFCQHYFHYPRTFGQGTKVEIKRGGSGGGGSGDIQMTQSPSSLSASVGDRVTITCRASQDISQYLNWYQQKPGKAPKLLIYYTSRLQSGVPSRFSGSGSGTDFTLTISSLQPEDFATYFCQQGNTWPPTFGQGTKLEIKR
B2: DVD2817 (bispecific antibody, IgG1)
VH: EVQLVQSGAEVKKPGASVKVSCKASGYTFANYGIIWVRQAPGQGLEWMGWINTYTGKPTYAQKFQGRVTMTTDTSTSTAYMELSSLRSEDTAVYYCARKLFTTMDVTDNAMDYWGQGTTVTVSSASTKGPSVFPLAPEVQLVESGGGLVQPGGSLRLSCAASGFSLTNNNVNWVRQAPGKGLEWVGGVWAGGATDYNSALKSRFTISRDNSKNTAYLQMNSLRAEDTAVYYCARDGGYSSSTLYAMDAWGQGTLVTVSS
VL: DIQMTQSPSSLSASVGDRVTITCRASQDISQYLNWYQQKPGKAPKLLIYYTSRLQSGVPSRFSGSGSGTDFTLTISSLQPEDFATYFCQQGNTWPPTFGQGTKLEIKRTVAAPDIQMTQSPSSLSASVGDRVTITCRASEDIYNALAWYQQKPGKAPKLLIYNTDTLHTGVPSRFSGSGSGTDYTLTISSLQPEDFATYFCQHYFHYPRTFGQGTKVEIKR
B3: DVD3042 (bispecific antibody, IgG1)
VH: EVQLVQSGAEVKKPGASVKVSCKASGYTFNNYGIIWVRQAPGQGLEWMGWINTYTGKPTYAQKFQGRVTMTTDTSTSTAYMELSSLRSEDTAVYYCARKLFNTVAVTDNAMDYWGQGTTVTVSSASTKGPSVFPLAPEVQLVESGGGLVQPGGSLRLSCAASGFSLTNNNVNWVRQAPGKGLEWVGGVWAGGATDYNSALKSRFTISRDNSKNTAYLQMNSLRAEDTAVYYCARDGGYSSSTLYAMDAWGQGTLVTVSS
VL: DIQMTQSPSSLSASVGDRVTITCRASQDIENYLNWYQQKPGKAPKLLIYYTSRLQSGVPSRFSGSGSGTDFTLTISSLQPEDFATYFCQQGNTQPPTFGQGTKLEIKRTVAAPDIQMTQSPSSLSASVGDRVTITCRASEDIYNALAWYQQKPGKAPKLLIYNTDTLHTGVPSRFSGSGSGTDYTLTISSLQPEDFATYFCQHYFHYPRTFGQGTKVEIKR
B4: DVD3039 (bispecific antibody, IgG1)
VH: EVQLVQSGAEVKKPGASVKVSCKASGYTFNNYGIIWVRQAPGQGLEWMGWINTYTGKPTYAQKFQGRVTMTTDTSTSTAYMELSSLRSEDTAVYYCARKLFNTVAVTDNAMDYWGQGTTVTVSSASTKGPEVQLVESGGGLVQPGGSLRLSCAASGFSLTNNNVNWVRQAPGKGLEWVGGVWAGGATDYNSALKSRFTISRDNSKNTAYLQMNSLRAEDTAVYYCARDGGYSSSTLYAMDAWGQGTLVTVSS
VL: DIQMTQSPSSLSASVGDRVTITCRASQDIENYLNWYQQKPGKAPKLLIYYTSRLQSGVPSRFSGSGSGTDFTLTISSLQPEDFATYFCQQGNTQPPTFGQGTKLEIKRTVAAPDIQMTQSPSSLSASVGDRVTITCRASEDIYNALAWYQQKPGKAPKLLIYNTDTLHTGVPSRFSGSGSGTDYTLTISSLQPEDFATYFCQHYFHYPRTFGQGTKVEIKR
B5: AB441 (antibody, V domains shown)
VH: EVQLVQSGAEVKKPGASVKVSCKASGYTFANYGIIWVRQAPGQGLEWMGWINTYTGKPTYAQKFQGRVTMTTDTSTSTAYMELSSLRSEDTAVYYCARKLFTTMDVTDNAMDYWGQGTTVTVSS
VL: DIQMTQSPSSLSASVGDRVTITCRASQDISQYLNWYQQKPGKAPKLLIYYTSRLQSGVPSRFSGSGSGTDFTLTISSLQPEDFATYFCQQGNTWPPTFGQGTKLEIKR
notes: parent antibody
B6: DVD2819 (bispecific antibody, IgG1)
VH: EVQLVESGGGLVQPGGSLRLSCAASGFSLTNNNVNWVRQAPGKGLEWVGGVWAGGATDYNSALKSRFTISRDNSKNTAYLQMNSLRAEDTAVYYCARDGGYSSSTLYAMDAWGQGTLVTVSSASTKGPEVQLVQSGAEVKKPGASVKVSCKASGYTFANYGIIWVRQAPGQGLEWMGWINTYTGKPTYAQKFQGRVTMTTDTSTSTAYMELSSLRSEDTAVYYCARKLFTTMDVTDNAMDYWGQGTTVTVSS
VL: DIQMTQSPSSLSASVGDRVTITCRASEDIYNALAWYQQKPGKAPKLLIYNTDTLHTGVPSRFSGSGSGTDYTLTISSLQPEDFATYFCQHYFHYPRTFGQGTKVEIKRTVAAPDIQMTQSPSSLSASVGDRVTITCRASQDISQYLNWYQQKPGKAPKLLIYYTSRLQSGVPSRFSGSGSGTDFTLTISSLQPEDFATYFCQQGNTWPPTFGQGTKLEIKR
B7: DVD2822 (bispecific antibody, IgG1)
VH: EVQLVESGGGLVQPGGSLRLSCAASGFSLTNNNVNWVRQAPGKGLEWVGGVWAGGATDYNSALKSRFTISRDNSKNTAYLQMNSLRAEDTAVYYCARDGGYSSSTLYAMDAWGQGTLVTVSSASTKGPSVFPLAPEVQLVQSGAEVKKPGASVKVSCKASGYTFANYGIIWVRQAPGQGLEWMGWINTYTGKPTYAQKFQGRVTMTTDTSTSTAYMELSSLRSEDTAVYYCARKLFTTMDVTDNAMDYWGQGTTVTVSS
VL: DIQMTQSPSSLSASVGDRVTITCRASEDIYNALAWYQQKPGKAPKLLIYNTDTLHTGVPSRFSGSGSGTDYTLTISSLQPEDFATYFCQHYFHYPRTFGQGTKVEIKRTVAAPDIQMTQSPSSLSASVGDRVTITCRASQDISQYLNWYQQKPGKAPKLLIYYTSRLQSGVPSRFSGSGSGTDFTLTISSLQPEDFATYFCQQGNTWPPTFGQGTKLEIKR
B8: DVD2821 (bispecific antibody, IgG1)
VH: EVQLVESGGGLVQPGGSLRLSCAASGFSLTNNNVNWVRQAPGKGLEWVGGVWAGGATDYNSALKSRFTISRDNSKNTAYLQMNSLRAEDTAVYYCARDGGYSSSTLYAMDAWGQGTLVTVSSASTKGPEVQLVQSGAEVKKPGASVKVSCKASGYTFANYGIIWVRQAPGQGLEWMGWINTYTGKPTYAQKFQGRVTMTTDTSTSTAYMELSSLRSEDTAVYYCARKLFTTMDVTDNAMDYWGQGTTVTVSS
VL: DIQMTQSPSSLSASVGDRVTITCRASEDIYNALAWYQQKPGKAPKLLIYNTDTLHTGVPSRFSGSGSGTDYTLTISSLQPEDFATYFCQHYFHYPRTFGQGTKVEIKRTVAAPSVFIFPPDIQMTQSPSSLSASVGDRVTITCRASQDISQYLNWYQQKPGKAPKLLIYYTSRLQSGVPSRFSGSGSGTDFTLTISSLQPEDFATYFCQQGNTWPPTFGQGTKLEIKR
B9: DVD3046 (bispecific antibody, IgG1)
VH: EVQLVESGGGLVQPGGSLRLSCAASGFSLTNNNVNWVRQAPGKGLEWVGGVWAGGATDYNSALKSRFTISRDNSKNTAYLQMNSLRAEDTAVYYCARDGGYSSSTLYAMDAWGQGTLVTVSSASTKGPEVQLVQSGAEVKKPGASVKVSCKASGYTFNNYGIIWVRQAPGQGLEWMGWINTYTGKPTYAQKFQGRVTMTTDTSTSTAYMELSSLRSEDTAVYYCARKLFNTVAVTDNAMDYWGQGTTVTVSS
VL: DIQMTQSPSSLSASVGDRVTITCRASEDIYNALAWYQQKPGKAPKLLIYNTDTLHTGVPSRFSGSGSGTDYTLTISSLQPEDFATYFCQHYFHYPRTFGQGTKVEIKRTVAAPSVFIFPPDIQMTQSPSSLSASVGDRVTITCRASQDIENYLNWYQQKPGKAPKLLIYYTSRLQSGVPSRFSGSGSGTDFTLTISSLQPEDFATYFCQQGNTQPPTFGQGTKLEIKR
B10: DVD3038 (bispecific antibody, IgG1)
VH: EVQLVQSGAEVKKPGASVKVSCKASGYTFNNYGIIWVRQAPGQGLEWMGWINTYTGKPTYAQKFQGRVTMTTDTSTSTAYMELSSLRSEDTAVYYCARKLFNTVAVTDNAMDYWGQGTTVTVSSGGGGSGGGGSEVQLVESGGGLVQPGGSLRLSCAASGFSLTNNNVNWVRQAPGKGLEWVGGVWAGGATDYNSALKSRFTISRDNSKNTAYLQMNSLRAEDTAVYYCARDGGYSSSTLYAMDAWGQGTLVTVSS
VL: DIQMTQSPSSLSASVGDRVTITCRASQDIENYLNWYQQKPGKAPKLLIYYTSRLQSGVPSRFSGSGSGTDFTLTISSLQPEDFATYFCQQGNTQPPTFGQGTKLEIKRGGSGGGGSGDIQMTQSPSSLSASVGDRVTITCRASEDIYNALAWYQQKPGKAPKLLIYNTDTLHTGVPSRFSGSGSGTDYTLTISSLQPEDFATYFCQHYFHYPRTFGQGTKVEIKR
B11: DVD3041 (bispecific antibody, IgG1)
VH: EVQLVQSGAEVKKPGASVKVSCKASGYTFNNYGIIWVRQAPGQGLEWMGWINTYTGKPTYAQKFQGRVTMTTDTSTSTAYMELSSLRSEDTAVYYCARKLFNTVAVTDNAMDYWGQGTTVTVSSASTKGPEVQLVESGGGLVQPGGSLRLSCAASGFSLTNNNVNWVRQAPGKGLEWVGGVWAGGATDYNSALKSRFTISRDNSKNTAYLQMNSLRAEDTAVYYCARDGGYSSSTLYAMDAWGQGTLVTVSS
VL: DIQMTQSPSSLSASVGDRVTITCRASQDIENYLNWYQQKPGKAPKLLIYYTSRLQSGVPSRFSGSGSGTDFTLTISSLQPEDFATYFCQQGNTQPPTFGQGTKLEIKRTVAAPSVFIFPPDIQMTQSPSSLSASVGDRVTITCRASEDIYNALAWYQQKPGKAPKLLIYNTDTLHTGVPSRFSGSGSGTDYTLTISSLQPEDFATYFCQHYFHYPRTFGQGTKVEIKR

Key:
[1] = target: T1, Recombinant Human TNF-α/TNFSF1A (human, UniProt P01375 77-233); assay: cell-based or functional assay
T1 sequence (P01375 77-233 limits assumed): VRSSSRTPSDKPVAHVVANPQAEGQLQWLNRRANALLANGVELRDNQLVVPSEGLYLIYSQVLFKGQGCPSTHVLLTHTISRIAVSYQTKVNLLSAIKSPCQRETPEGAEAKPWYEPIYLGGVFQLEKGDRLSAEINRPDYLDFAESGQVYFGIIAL

Recombinant Human β-NGF = Recombinant Human β-NGF (human, UniProt P01138 122-241); assay: cell-based or functional assay
Recombinant Human β-NGF, sequence (P01138 122-241 limits assumed): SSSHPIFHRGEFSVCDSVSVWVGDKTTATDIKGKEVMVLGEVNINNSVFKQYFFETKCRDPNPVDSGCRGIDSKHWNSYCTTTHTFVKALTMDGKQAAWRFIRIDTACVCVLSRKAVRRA

[2] = target: T1, Recombinant Human TNF-α/TNFSF1A; assay: Biacore SPR
How it was run: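 Antibodies or DVD-Ig captured on anti-mouse IgG (Fcγ) CM5 surface, SPR at 25 °C in HBS-EP+. Antigen at 0.8–100 nM, 50 μl/min; association 5 min, dissociation 10 min. kon and koff came from a global 1:1 fit with local Rmax.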

Binder | C-Terminal VD huTNFα Neutralization Assay IC50 [1] | N-Terminal VD NGF Neutralization Assay IC50 (Recombinant Human β-NGF) | N-Terminal VD huTNFα Neutralization Assay IC50 [1] | C-Terminal VD NGF Neutralization Assay IC50 (Recombinant Human β-NGF) | further results
B1 | 0.072 nM | 0.003 nM |  |  | 
B2 |  |  | 0.013 nM | 1.27 nM | 
B3 |  |  | 0.006 nM | > 10 nM | 
B4 |  |  | 0.012 nM | 0.088 nM | 
B5 |  |  |  |  | Kd [2]: 0.0024 nM; koff [2]: 1.8e-05 s⁻¹; kon [2]: 7.5e+06 M⁻¹ s⁻¹; huTNFα Neutralization Assay IC50 [1]: 0.037 nM
B6 | 0.279 nM | 0.006 nM |  |  | 
B7 | 0.107 nM | 0.003 nM |  |  | 
B8 | 0.09 nM | 0.011 nM |  |  | 
B9 | 0.05 nM | 0.145 nM |  |  | 
B10 |  |  | 0.002 nM | 0.093 nM | 
B11 |  |  | 0.006 nM | > 10 nM | 
